Experimental data published in US20150344570A1 (published 2015).

T1: FcγRIIa R (human, UniProt P12318 34-217)
T1 construct: extracellular domain; also called FcgRIIa R type; 2aR
T1 sequence (looked up): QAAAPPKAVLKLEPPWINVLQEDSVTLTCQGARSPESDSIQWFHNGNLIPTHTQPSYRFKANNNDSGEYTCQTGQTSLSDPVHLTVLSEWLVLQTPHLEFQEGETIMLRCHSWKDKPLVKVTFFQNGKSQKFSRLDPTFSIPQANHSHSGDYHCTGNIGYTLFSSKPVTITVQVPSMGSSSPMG

T2: FcγRIIb (human, UniProt P31994 43-217)
T2 construct: extracellular domain; also called FcgRIIb; 2b
T2 sequence (looked up): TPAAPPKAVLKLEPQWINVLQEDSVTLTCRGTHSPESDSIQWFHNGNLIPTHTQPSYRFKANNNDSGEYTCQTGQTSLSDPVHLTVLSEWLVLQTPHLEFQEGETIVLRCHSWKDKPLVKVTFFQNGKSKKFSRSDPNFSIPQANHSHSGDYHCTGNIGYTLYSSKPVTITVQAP

B1: GpH7-A5/GpH7-B3 variant E269_15Y/GpL16-k0 (antibody, human IgG1, kappa)
heavy 1: not shown
heavy 2: not shown
light: DIVMTQSPLSLPVTPGEPASISCQASESLVHSNRNTYLHWYLQKPGQSPQLLIYKVSNRFSGVPDRFSGSGSGTDFTLKISRVEAEDVGVYYCSQNTHVPPTFGQGTKVEIERTVAAPSVFIFPPSDEQLKSGTASVVCLLNNFYPREAKVQWKVDNALQSGNSQESVTEQDSKDSTYSLSSTLTLSKADYEKHKVYACEVTHQGLSSPVTKSFNRGEC
notes: heterodimerized anti-glypican-3 IgG1; alteration in one H chain only; also called He Ab
B2: GpH7-A5/GpH7-B3 variant P271_04F/GpL16-k0 (antibody, human IgG1, kappa)
heavy 1: not shown
heavy 2: not shown
light: B1 light
notes: as for B1
B3: GpH7-A5/GpH7-B3 variant Q295_16H/GpL16-k0 (antibody, human IgG1, kappa)
heavy 1: not shown
heavy 2: not shown
light: B1 light
notes: as for B1
B4: GpH7-A5/GpH7-B3 variant Q295_20W/GpL16-k0 (antibody, human IgG1, kappa)
heavy 1: not shown
heavy 2: not shown
light: B1 light
notes: as for B1
B5: GpH7-A5/GpH7-B3 variant Q295_11K/GpL16-k0 (antibody, human IgG1, kappa)
heavy 1: not shown
heavy 2: not shown
light: B1 light
notes: as for B1
B6: GpH7-A5/GpH7-B3 variant H268_06M/GpL16-k0 (antibody, human IgG1, kappa)
heavy 1: not shown
heavy 2: not shown
light: B1 light
notes: as for B1
B7: GpH7-A5/GpH7-B3 variant Q295_01G/GpL16-k0 (antibody, human IgG1, kappa)
heavy 1: not shown
heavy 2: not shown
light: B1 light
notes: as for B1
B8: GpH7-A5/GpH7-B3 variant E269_18N/GpL16-k0 (antibody, human IgG1, kappa)
heavy 1: not shown
heavy 2: not shown
light: B1 light
notes: as for B1
B9: GpH7-A5/GpH7-B3 variant S298_07I/GpL16-k0 (antibody, human IgG1, kappa)
heavy 1: not shown
heavy 2: not shown
light: B1 light
notes: as for B1
B10: GpH7-A5/GpH7-B3 variant S298_02A/GpL16-k0 (antibody, human IgG1, kappa)
heavy 1: not shown
heavy 2: not shown
light: B1 light
notes: heterodimerized anti-glypican-3 IgG1; alteration in one H chain only; also called He Ab; GpH7-A5/GpH7-B3-15-02A/GpL16-k0
B11: GpH7-A5/GpH7-B3 variant Q295_12R/GpL16-k0 (antibody, human IgG1, kappa)
heavy 1: not shown
heavy 2: not shown
light: B1 light
notes: as for B1
B12: GpH7-A5/GpH7-B3 variant S298_04F/GpL16-k0 (antibody, human IgG1, kappa)
heavy 1: not shown
heavy 2: not shown
light: B1 light
notes: as for B1
B13: GpH7-A5/GpH7-B3 variant S298_03V/GpL16-k0 (antibody, human IgG1, kappa)
heavy 1: not shown
heavy 2: not shown
light: B1 light
notes: as for B1
B14: GpH7-A5/GpH7-B3 variant S298_01G/GpL16-k0 (antibody, human IgG1, kappa)
heavy 1: not shown
heavy 2: not shown
light: B1 light
notes: as for B1
B15: GpH7-A5/GpH7-B3 variant Y296_03V/GpL16-k0 (antibody, human IgG1, kappa)
heavy 1: not shown
heavy 2: not shown
light: B1 light
notes: as for B1
B16: GpH7-A5/GpH7-B3 variant P271_20W/GpL16-k0 (antibody, human IgG1, kappa)
heavy 1: not shown
heavy 2: not shown
light: B1 light
notes: as for B1
B17: GpH7-A5/GpH7-B3 variant Q295_18N/GpL16-k0 (antibody, human IgG1, kappa)
heavy 1: not shown
heavy 2: not shown
light: B1 light
notes: as for B1
B18: GpH7-A5/GpH7-B3 variant V266_16H/GpL16-k0 (antibody, human IgG1, kappa)
heavy 1: not shown
heavy 2: not shown
light: B1 light
notes: as for B1
B19: GpH7-A5/GpH7-B3 variant Q295_05P/GpL16-k0 (antibody, human IgG1, kappa)
heavy 1: not shown
heavy 2: not shown
light: B1 light
notes: as for B1
B20: GpH7-A5/GpH7-B3 variant E269_20W/GpL16-k0 (antibody, human IgG1, kappa)
heavy 1: not shown
heavy 2: not shown
light: B1 light
notes: as for B1
B21: GpH7-A5/GpH7-B3 variant H268_08L/GpL16-k0 (antibody, human IgG1, kappa)
heavy 1: not shown
heavy 2: not shown
light: B1 light
notes: as for B1
B22: GpH7-A5/GpH7-B3 variant Q295_03V/GpL16-k0 (antibody, human IgG1, kappa)
heavy 1: not shown
heavy 2: not shown
light: B1 light
notes: as for B1
B23: GpH7-A5/GpH7-B3 variant E269_16H/GpL16-k0 (antibody, human IgG1, kappa)
heavy 1: not shown
heavy 2: not shown
light: B1 light
notes: as for B1
B24: GpH7-A5/GpH7-B3 variant Q295_13S/GpL16-k0 (antibody, human IgG1, kappa)
heavy 1: not shown
heavy 2: not shown
light: B1 light
notes: as for B1
B25: GpH7-A5/GpH7-B3 variant S298_09D/GpL16-k0 (antibody, human IgG1, kappa)
heavy 1: not shown
heavy 2: not shown
light: B1 light
notes: as for B1
B26: GpH7-A5/GpH7-B3 variant S298_05P/GpL16-k0 (antibody, human IgG1, kappa)
heavy 1: not shown
heavy 2: not shown
light: B1 light
notes: as for B1
B27: GpH7-A5/GpH7-B3 variant Q295_04F/GpL16-k0 (antibody, human IgG1, kappa)
heavy 1: not shown
heavy 2: not shown
light: B1 light
notes: as for B1
B28: GpH7-A5/GpH7-B3 variant P271_15Y/GpL16-k0 (antibody, human IgG1, kappa)
heavy 1: not shown
heavy 2: not shown
light: B1 light
notes: as for B1
B29: GpH7-A5/GpH7-B3 variant Q295_15Y/GpL16-k0 (antibody, human IgG1, kappa)
heavy 1: not shown
heavy 2: not shown
light: B1 light
notes: as for B1
B30: GpH7-A5/GpH7-B3 variant E269_19Q/GpL16-k0 (antibody, human IgG1, kappa)
heavy 1: not shown
heavy 2: not shown
light: B1 light
notes: as for B1
B31: GpH7-A5/GpH7-B3 variant H268_11K/GpL16-k0 (antibody, human IgG1, kappa)
heavy 1: not shown
heavy 2: not shown
light: B1 light
notes: as for B1
B32: GpH7-A5/GpH7-B3 variant Y296_01G/GpL16-k0 (antibody, human IgG1, kappa)
heavy 1: not shown
heavy 2: not shown
light: B1 light
notes: as for B1

Molecular target: T1, FcγRIIa R
Assay: SPR (Biacore); He/Con_2aR divided by He/Con_2b (FcγRIIa R over FcγRIIb)

He_2aR/2b (IIaR/IIb)	Binder
1.29 ratio	B1
1.28 ratio	B2
1.3 ratio	B3
1.35 ratio	B4
1.26 ratio	B5
1.23 ratio	B6
1.32 ratio	B7
1.32 ratio	B8
1.28 ratio	B9
1.24 ratio	B10
1.27 ratio	B11
1.29 ratio	B12
1.34 ratio	B13
1.23 ratio	B14
1.21 ratio	B15
1.33 ratio	B16

He_2aR/2b (IIaR/IIb)	Binder
1.27 ratio	B17
1.34 ratio	B18
1.3 ratio	B19
1.3 ratio	B20
1.25 ratio	B21
1.2 ratio	B22
1.32 ratio	B23
1.3 ratio	B24
1.4 ratio	B25
1.34 ratio	B26
1.29 ratio	B27
1.35 ratio	B28
1.27 ratio	B29
1.31 ratio	B30
1.21 ratio	B31
1.21 ratio	B32

Molecular target: T1, FcγRIIa R
Assay: SPR (Biacore), captured antibody, FcγR as analyte; relative binding, control GpH7-A5/GpH7-B3/GpL16-k0 = 100
Description: (§1) The heterodimerized antibodies He Abs in which one of the H chains was introduced with an alteration were assayed for their binding activities to each activating FcγR and inhibitory FcγR according to the method described in Example 4. […] The activating FcγRs in FIGS. 26, 27, 28, and 29 are FcγRIa, FcγRIIa (R), FcγRIIa (H), and FcγRIIIa, respectively.
(§2) Analysis of interaction between objective antibody and the FcγR was carried out using Biacore T100 (GE Healthcare). HBS-EP+ (GE Healthcare) was used as the running buffer, and the measurement temperature was set to 25° C. Chips produced by immobilizing the antigen peptide by the amine coupling method to a Series S Sencor Chip CM5 (GE Healthcare), or alternatively, chips produced by allowing preliminarily biotinylated antigen peptides to interact with and immobilize onto a Series S Sensor Chip SA (certified) (GE Healthcare) were used. Antibodies of interest were captured onto an antigen peptide-immobilized chip, and allowed to interact to each FcγR diluted with running buffer. To regenerate and repeatedly use the chip, the antibodies captured on the chip were washed off by reacting 10 mM glycine-HCl, pH 1.5.

He/Con_2aR	Binder
57.6 control = 100	B1
75.9 control = 100	B2
81.3 control = 100	B3
60 control = 100	B4
88.9 control = 100	B5
81 control = 100	B6
60.9 control = 100	B7
59.2 control = 100	B8
90.1 control = 100	B9
91.2 control = 100	B10
83 control = 100	B11
84 control = 100	B12
86.3 control = 100	B13
98.8 control = 100	B14
96.2 control = 100	B15
77.3 control = 100	B16

He/Con_2aR	Binder
82.4 control = 100	B17
76.5 control = 100	B18
87.4 control = 100	B19
55.5 control = 100	B20
85 control = 100	B21
91.2 control = 100	B22
50.7 control = 100	B23
73.7 control = 100	B24
67.8 control = 100	B25
16 control = 100	B26
83.6 control = 100	B27
70.7 control = 100	B28
82.8 control = 100	B29
57.8 control = 100	B30
100 control = 100	B31
95.8 control = 100	B32

Molecular target: T2, FcγRIIb
Assay: as above
Description: as §1, §2

He/Con_2b	Binder
44.7 control = 100	B1
59.5 control = 100	B2
62.7 control = 100	B3
44.4 control = 100	B4
70.4 control = 100	B5
65.7 control = 100	B6
46 control = 100	B7
44.8 control = 100	B8
70.6 control = 100	B9
73.4 control = 100	B10
65.2 control = 100	B11
65.4 control = 100	B12
64.5 control = 100	B13
80.1 control = 100	B14
79.3 control = 100	B15
58.1 control = 100	B16

He/Con_2b	Binder
64.9 control = 100	B17
57.2 control = 100	B18
67.5 control = 100	B19
42.5 control = 100	B20
67.8 control = 100	B21
75.7 control = 100	B22
38.5 control = 100	B23
56.9 control = 100	B24
48.3 control = 100	B25
11.9 control = 100	B26
64.7 control = 100	B27
52.3 control = 100	B28
65.4 control = 100	B29
44.3 control = 100	B30
83 control = 100	B31
79.3 control = 100	B32
